US20220411504A1 (Janssen / Centocor, published 2022)
Where a chain is given by its changes, count along the chain named.

B1: CD3W243-HL-E.c. (scFv)
scFv: EVQLVESGGGLVKPGGSLRLSCAASGFTFSRYNMNWVRQAPGKGLEWVSSISTSSNYIYYADSVKGRFTFSRDNAKNSLDLQMSGLRAEDTAIYYCTRGWGPFDYWGQGTLVTVSSGTEGKSSGSGSESKSTDIQMTQSPSSLSASVGDRVTITCRARQSIGTAIHWYQQKPGKAPKLLIKYASESISGVPSRFSGSGSGTDFTLTISSVQPEDFATYYCQQSNSWPYTFGQGTKLEIKGPGGQHHHHHHGAYPYDVPDYAS
notes: E. coli supernatant
B2: CD3W247-HL-E.c. (scFv)
scFv: B1 scFv with K181Y, V210L, N224G
notes: E. coli supernatant
B3: CD3W246-HL-E.c. (scFv)
scFv: B1 scFv with N224G
notes: E. coli supernatant
B4: CD3W244-HL-E.c. (scFv)
scFv: B1 scFv with K181Y, N224G
notes: E. coli supernatant
B5: MHGB669 (antibody, human IgG1, kappa, V domains shown)
VH: QVQLQQSGPGLVRPSQTLSVTCAISGDSVSSNSASWNWIRQSPSRGLEWLGRTYYRSEWFNDYAVSVKSRVTINPDTSKNQLSLQLNSVIPEDTAVYYCAREARIGVAGKGFDYWGQGTLVTVSS
VL: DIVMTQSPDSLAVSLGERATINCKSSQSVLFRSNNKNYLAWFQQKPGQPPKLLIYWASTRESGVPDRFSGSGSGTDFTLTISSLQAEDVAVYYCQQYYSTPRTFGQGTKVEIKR
notes: IgG1
B6: MHGB688 (antibody, human IgG1, kappa, V domains shown)
VH: EVQLLESGPGLVKPSQTLSLTCVISGDSVSSNRAAWNWIRQSPSRGLEWLGRTYYRSKWYNDYAVSVKSRITINSDTSKNQISLQLNSVTPEDTAVYYCARVRPGIPFDYWGQGTPVTVSS
VL: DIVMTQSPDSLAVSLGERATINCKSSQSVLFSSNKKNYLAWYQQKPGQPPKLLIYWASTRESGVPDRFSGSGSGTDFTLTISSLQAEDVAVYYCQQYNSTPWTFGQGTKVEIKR
notes: IgG1
B7: MHGB738 (antibody, human IgG1, kappa, V domains shown)
VH: B6 VH with E1Q, L5Q, E6Q, V23A, S75P
VL: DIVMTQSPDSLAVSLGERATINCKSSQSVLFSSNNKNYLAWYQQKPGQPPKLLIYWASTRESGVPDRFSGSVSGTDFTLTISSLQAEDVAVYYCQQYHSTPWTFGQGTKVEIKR
notes: IgG1; also called GL optimized B688
B8: MHGB687 (antibody, human IgG1, kappa, V domains shown)
VH: QLQLQESGPGLVKPSETLSLMCTVSGGSITSSSYYWGWIRQPPGKGLEWIGNIYYSGTTYYNPSLKSRVTISVDTSKNQFSLKLSSVTAADTAVYYCAAGARDFDSWGQGSLVTVSS
VL: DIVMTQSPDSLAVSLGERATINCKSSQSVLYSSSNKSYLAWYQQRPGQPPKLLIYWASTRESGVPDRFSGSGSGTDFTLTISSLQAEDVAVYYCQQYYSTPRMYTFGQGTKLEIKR
notes: IgG1
B9: MHGB694 (antibody, human IgG1, kappa, V domains shown)
VH: EVQLLESGGGLVQPGGSLRLSCAASGFTFSSYAMHWVRQAPGKGLDWVSGISGSGFSTYYVDSVKGRFTISRDNSKHTLYLQMNSLRAEDTAVYYCAKDNLVAGTVFDYWGQGTLVTVSS
VL: not shown
notes: IgG1
B10: MHGB672 (antibody, human IgG1, kappa, V domains shown)
VH: QVQLQQSGPGLVKPSQTLSLTCAISGDSVSSNRAAWNWIRQTPSRGLEWLGRTYYRSEWYNDYAVSVKSRITINPDTSKNQFSLQLNSVTPEDTAVYYCARVRAAVPFDYWGQGTLVTVSS
VL: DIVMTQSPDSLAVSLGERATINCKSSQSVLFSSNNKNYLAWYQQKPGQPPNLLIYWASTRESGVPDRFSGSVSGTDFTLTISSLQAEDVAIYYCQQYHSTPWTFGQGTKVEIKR
notes: IgG1
B11: MHGB668 (antibody, human IgG1, kappa, V domains shown)
VH: QVQLQQSGPGLVKPSQTLSLTCAISGDSVSNNSAAWNWIRQSPSRGLEWLGRTYYRSKWYNDYAVSVKSRITINPDTSKNQFSLQLNSVTPEDTAVYYCARYGSGTLLFDYWGQGTLVTVSS
VL: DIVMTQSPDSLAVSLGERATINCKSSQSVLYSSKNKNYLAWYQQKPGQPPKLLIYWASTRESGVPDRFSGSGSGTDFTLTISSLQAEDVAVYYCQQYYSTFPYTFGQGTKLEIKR
notes: IgG1

The binders below were run against T1, Human CD3 epsilon (CD3ε) of the T cell receptor complex on cells (human, UniProt P07766 23-207) (assay: flow cytometry, E. coli supernatant on human T cells).
T1 construct: On Jurkat cells and primary human (pan) T cells; also called T-cell surface glycoprotein CD3 epsilon chain; T3E
T1 sequence (P07766 23-207 limits assumed, one chain of several): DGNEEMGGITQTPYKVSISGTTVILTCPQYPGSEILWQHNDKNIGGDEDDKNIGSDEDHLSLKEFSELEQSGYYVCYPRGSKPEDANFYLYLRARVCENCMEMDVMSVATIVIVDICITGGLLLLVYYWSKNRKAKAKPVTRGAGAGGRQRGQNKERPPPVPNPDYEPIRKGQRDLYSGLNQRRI
In the case of B1, the “MFI (n = 2)” value is reported as 111000.
With B2 the “MFI (n = 2)” value was 111000.
In the case of B3, the “MFI (n = 2)” value is reported as 154000.
In the case of B4, the “MFI (n = 2)” value is reported as 166000.

What follows are binders tested against T2, MHGW8 (B2m-3(G4S)-HLA-G1-G4S-Avi) (human, biotinylated (Avi tag) in the blocking assay) (assay: SPR, mAb captured by goat anti-human Fc, MHGW8 flowed).
T2 construct: Single chain β2m-HLA-G1; also called soluble HLA-G1 extracellular domain; recombinant biotinylated HLA-G1
Binder B5 has a Kd of 1.44 nM, a koff of 0.000453 s⁻¹ and a kon of 315000 M⁻¹ s⁻¹.
B6 showed a Kd of 0.4 nM, a koff of 0.000263 s⁻¹ and a kon of 658000 M⁻¹ s⁻¹.
B7 showed a Kd of 0.139 nM.
For B8, the Kd was 0.809 nM, the koff was 0.000153 s⁻¹ and the kon was 189000 M⁻¹ s⁻¹.
Work on B9 yielded a Kd of 1.15 nM, a koff of 0.0024 s⁻¹ and a kon of 2.08e+06 M⁻¹ s⁻¹.
B10 was tested, and the Kd was 0.55 nM, the koff was 0.00179 s⁻¹ and the kon was 3.25e+06 M⁻¹ s⁻¹.

These binders were tested against T3, HLA-G on cells (K562-HLA-G and HLA-G expressing tumor cells) (human) (assay: flow cytometry, IgG1 mAb on cells expressing HLA-G).
T3 construct: whole, on cells; also called HLA-G1
B5 was tested, and the “GeoMean fluorescence (maximum value)” value was 616000.
In the case of B6, the “GeoMean fluorescence (maximum value)” value is reported as 482000.
B8 was tested, and the “GeoMean fluorescence (maximum value)” value was 528000.
For B9, the “GeoMean fluorescence (maximum value)” value was 473000.
For B10, the “GeoMean fluorescence (maximum value)” value was 522000.
For B11, the “GeoMean fluorescence (maximum value)” value was 591000.

The binders below were run against T2, MHGW8 (B2m-3(G4S)-HLA-G1-G4S-Avi) (assay: flow cytometry competition: blocks MHGW8-dextramer binding to ILT2 on HEK293T cells (competitor ILT2)).
B5 was tested, and the EC50 was 1700 nM.
Binder B6 has an EC50 of 1720 nM.
Work on B7 yielded an EC50 of 1.6 nM.
Work on B9 yielded an EC50 of 644 nM.
Work on B10 yielded an EC50 of 2120 nM.

Target: T4, CD3W147 (homodimeric CD3εγ-Fc) (human, biotinylated)
T4 construct: also called recombinant CD3
T4 chain: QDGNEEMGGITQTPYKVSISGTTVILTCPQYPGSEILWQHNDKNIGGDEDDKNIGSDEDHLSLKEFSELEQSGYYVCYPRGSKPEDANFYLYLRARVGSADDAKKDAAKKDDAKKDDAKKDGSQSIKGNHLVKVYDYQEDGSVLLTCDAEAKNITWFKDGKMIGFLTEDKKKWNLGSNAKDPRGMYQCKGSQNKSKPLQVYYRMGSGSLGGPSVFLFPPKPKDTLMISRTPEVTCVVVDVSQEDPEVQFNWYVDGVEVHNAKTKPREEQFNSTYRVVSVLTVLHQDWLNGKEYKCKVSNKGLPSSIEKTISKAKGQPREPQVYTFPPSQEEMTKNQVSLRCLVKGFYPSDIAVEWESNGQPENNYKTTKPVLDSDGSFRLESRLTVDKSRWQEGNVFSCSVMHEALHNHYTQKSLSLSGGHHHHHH
Test: ELISA, E. coli supernatant (heated to 60° C., cooled) on biotinylated CD3W147
B1: binds.
B2: binds.
B3: binds.
B4: binds.

Each binder was assayed against T2, MHGW8 (B2m-3(G4S)-HLA-G1-G4S-Avi) (assay: flow cytometry competition: blocks MHGW8-dextramer binding to ILT4 on HEK293T cells (competitor ILT4)).
Binder B5 has an EC50 of 1590 nM.
With B6 the EC50 was 1420 nM.
For B7, the EC50 was 1.6 nM.
B8 gave an EC50 of 1860 nM.
For B9, the EC50 was 200 nM.
In the case of B10, the EC50 is reported as 1610 nM.
